Measurements: paper PMC9482650, “Quantitative fragmentomics allow affinity mapping of interactomes” (Nature Communications, 2022)

T1: CARD11, Q9BXL7
T1 sequence (Q9BXL7 662-765, limits assumed, looked up): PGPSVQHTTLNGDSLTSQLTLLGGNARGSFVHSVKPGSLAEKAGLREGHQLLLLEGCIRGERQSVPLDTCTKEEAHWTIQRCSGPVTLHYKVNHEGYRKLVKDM

T2: FRMPD1, Q5SYB0
T2 sequence (Q5SYB0 52-145, limits assumed, looked up): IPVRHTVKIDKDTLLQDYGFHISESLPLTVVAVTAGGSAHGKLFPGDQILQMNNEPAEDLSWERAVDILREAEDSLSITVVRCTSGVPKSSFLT

T3: GRIP1_2, Q9Y3R0
T3 sequence (Q9Y3R0 145-248, limits assumed, looked up): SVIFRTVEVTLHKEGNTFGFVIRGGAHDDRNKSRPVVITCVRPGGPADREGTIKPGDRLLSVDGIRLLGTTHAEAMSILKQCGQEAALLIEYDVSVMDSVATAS

T4: HTRA4, P83105
T4 sequence (P83105 378-476, limits assumed, looked up): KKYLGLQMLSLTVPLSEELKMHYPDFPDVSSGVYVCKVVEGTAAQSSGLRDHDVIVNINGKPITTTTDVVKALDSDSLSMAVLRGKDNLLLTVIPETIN

T5: NHERF3_3, Q5T2W1
T5 sequence (Q5T2W1 238-333, limits assumed, looked up): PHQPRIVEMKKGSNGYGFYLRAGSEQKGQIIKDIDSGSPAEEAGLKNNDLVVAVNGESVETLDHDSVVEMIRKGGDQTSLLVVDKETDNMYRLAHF

T6: NHERF3_4, Q5T2W1
T6 sequence (Q5T2W1 373-468, limits assumed, looked up): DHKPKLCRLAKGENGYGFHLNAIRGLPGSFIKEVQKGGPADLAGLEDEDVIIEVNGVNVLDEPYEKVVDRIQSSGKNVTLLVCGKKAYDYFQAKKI

T7: PDZD2_2, O15018
T7 sequence (O15018 329-429, limits assumed, looked up): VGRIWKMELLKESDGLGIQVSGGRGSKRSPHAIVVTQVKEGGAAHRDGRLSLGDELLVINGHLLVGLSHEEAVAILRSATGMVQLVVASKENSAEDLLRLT

T8: SIPA1L2, Q9P2F8
T8 sequence (Q9P2F8 945-1036, limits assumed, looked up): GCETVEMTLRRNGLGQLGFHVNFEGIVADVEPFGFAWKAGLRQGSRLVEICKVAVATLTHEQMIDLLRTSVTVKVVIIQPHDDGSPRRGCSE

T9: SNTA1, Q13424
T9 sequence (Q13424 82-180, limits assumed, looked up): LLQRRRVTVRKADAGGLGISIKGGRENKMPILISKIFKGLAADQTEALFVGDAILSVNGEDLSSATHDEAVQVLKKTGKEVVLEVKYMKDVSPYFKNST

T10: SNTG1, Q9NSN8
T10 sequence (Q9NSN8 52-150, limits assumed, looked up): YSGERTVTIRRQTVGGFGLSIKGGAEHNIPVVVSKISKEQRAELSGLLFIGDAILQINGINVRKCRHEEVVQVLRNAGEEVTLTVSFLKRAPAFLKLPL

T11: TJP3_3, O95049
T11 sequence (O95049 375-456, limits assumed, looked up): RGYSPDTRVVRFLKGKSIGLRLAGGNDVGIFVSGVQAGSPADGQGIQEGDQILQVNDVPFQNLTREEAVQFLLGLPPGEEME


Experiments:
Experiment in all cases: holdup assay
Set-up in all cases: key: below the threshold = too weak to quantify, mostly under pKd 3.1 to 4
Details in all cases: plain residues with an end cap or a label only (N-terminal biotin on a linker: ado-ado)
ARHGEF12, Q9NZN5-2 = biological target: ARHGEF12, Q9NZN5-2
CARD11, Q9BXL7 = biological target: T1, CARD11, Q9BXL7
DLG1_3, Q12959 = biological target: DLG1_3, Q12959
FRMPD1, Q5SYB0 = biological target: T2, FRMPD1, Q5SYB0
GIPC2, Q8TF65 = biological target: GIPC2, Q8TF65
GRIP1_2, Q9Y3R0 = biological target: T3, GRIP1_2, Q9Y3R0
GRIP2_4, Q9C0E4 = biological target: GRIP2_4, Q9C0E4
HTRA1, Q92743 = biological target: HTRA1, Q92743
HTRA4, P83105 = biological target: T4, HTRA4, P83105
Inadl_5, Q8NI35 = biological target: Inadl_5, Q8NI35
Inadl_6, Q8NI35 = biological target: Inadl_6, Q8NI35
LDB3, O75112 = biological target: LDB3, O75112
LNX1_3, Q8TBB1 = biological target: LNX1_3, Q8TBB1
MAGI2_3, Q86UL8 = biological target: MAGI2_3, Q86UL8
MAGI2_4, Q86UL8 = biological target: MAGI2_4, Q86UL8
MAGI2_5, Q86UL8 = biological target: MAGI2_5, Q86UL8
NHERF3_3, Q5T2W1 = biological target: T5, NHERF3_3, Q5T2W1
NHERF3_4, Q5T2W1 = biological target: T6, NHERF3_4, Q5T2W1
NHERF4_2, Q86UT5 = biological target: NHERF4_2, Q86UT5
PDZD2_2, O15018 = biological target: T7, PDZD2_2, O15018
PICK1, Q9NRD5 = biological target: PICK1, Q9NRD5
PTPN3, P26045 = biological target: PTPN3, P26045
SCRIB_2, Q14160 = biological target: SCRIB_2, Q14160
SIPA1L2, Q9P2F8 = biological target: T8, SIPA1L2, Q9P2F8
SNTA1, Q13424 = biological target: T9, SNTA1, Q13424
SNTG1, Q9NSN8 = biological target: T10, SNTG1, Q9NSN8
TJP3_3, O95049 = biological target: T11, TJP3_3, O95049

MAGI2_3, Q86UL8, sequence (Q86UL8 600-682): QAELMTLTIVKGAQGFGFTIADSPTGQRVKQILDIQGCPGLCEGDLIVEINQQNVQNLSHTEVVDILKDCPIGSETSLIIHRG
Inadl_5, Q8NI35, sequence (Q8NI35 673-780): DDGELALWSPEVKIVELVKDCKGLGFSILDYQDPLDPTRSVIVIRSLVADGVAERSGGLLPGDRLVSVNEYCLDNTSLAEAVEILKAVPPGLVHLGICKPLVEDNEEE
LDB3, O75112, sequence (O75112 1-94): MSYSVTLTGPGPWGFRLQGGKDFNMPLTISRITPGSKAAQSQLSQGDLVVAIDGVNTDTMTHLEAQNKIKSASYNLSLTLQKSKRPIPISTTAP
MAGI2_4, Q86UL8, sequence (Q86UL8 772-865): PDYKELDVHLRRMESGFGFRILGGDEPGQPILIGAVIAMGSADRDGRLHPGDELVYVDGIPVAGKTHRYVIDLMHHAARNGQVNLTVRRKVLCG
PICK1, Q9NRD5, sequence (Q9NRD5 17-115): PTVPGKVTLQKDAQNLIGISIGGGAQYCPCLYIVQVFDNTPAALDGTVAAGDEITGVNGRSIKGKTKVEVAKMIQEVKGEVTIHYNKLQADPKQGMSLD
GRIP2_4, Q9C0E4, sequence (Q9C0E4 446-548): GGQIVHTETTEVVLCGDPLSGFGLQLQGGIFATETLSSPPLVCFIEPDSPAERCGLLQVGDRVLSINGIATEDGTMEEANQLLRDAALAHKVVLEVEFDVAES
GIPC2, Q8TF65, sequence (Q8TF65 112-203): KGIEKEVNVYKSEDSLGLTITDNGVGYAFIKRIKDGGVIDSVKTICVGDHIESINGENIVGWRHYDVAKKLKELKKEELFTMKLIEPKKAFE
ARHGEF12, Q9NZN5-2, sequence (Q9NZN5 other isoform, or with tags, fused parts or gaps): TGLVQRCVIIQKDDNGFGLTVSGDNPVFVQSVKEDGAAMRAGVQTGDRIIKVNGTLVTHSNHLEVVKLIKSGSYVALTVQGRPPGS
Inadl_6, Q8NI35, sequence (Q8NI35 1058-1167): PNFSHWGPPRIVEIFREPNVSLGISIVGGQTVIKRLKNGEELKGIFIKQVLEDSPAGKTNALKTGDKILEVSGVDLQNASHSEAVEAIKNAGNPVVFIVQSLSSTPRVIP
SCRIB_2, Q14160, sequence (Q14160 857-960): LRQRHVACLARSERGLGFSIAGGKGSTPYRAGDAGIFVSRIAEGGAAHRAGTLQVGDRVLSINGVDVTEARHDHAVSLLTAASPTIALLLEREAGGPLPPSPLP
PTPN3, P26045, sequence (P26045 505-587): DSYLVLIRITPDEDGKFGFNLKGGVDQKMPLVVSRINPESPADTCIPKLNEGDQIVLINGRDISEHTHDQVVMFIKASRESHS
DLG1_3, Q12959, sequence (Q12959 457-571): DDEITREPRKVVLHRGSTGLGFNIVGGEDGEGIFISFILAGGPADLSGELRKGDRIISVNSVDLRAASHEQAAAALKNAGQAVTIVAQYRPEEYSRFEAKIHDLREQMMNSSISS
NHERF4_2, Q86UT5, sequence (Q86UT5 220-308): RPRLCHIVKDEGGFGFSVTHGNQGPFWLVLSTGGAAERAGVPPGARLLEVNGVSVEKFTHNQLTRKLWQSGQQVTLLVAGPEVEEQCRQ
MAGI2_5, Q86UL8, sequence (Q86UL8 915-1017): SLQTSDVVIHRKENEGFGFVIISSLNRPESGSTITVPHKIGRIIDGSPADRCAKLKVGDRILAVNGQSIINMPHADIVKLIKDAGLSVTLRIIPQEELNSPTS
HTRA1, Q92743, sequence (Q92743 360-477): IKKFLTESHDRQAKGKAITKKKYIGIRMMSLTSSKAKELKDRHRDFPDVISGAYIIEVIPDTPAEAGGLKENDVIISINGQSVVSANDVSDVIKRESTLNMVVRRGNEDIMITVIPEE
LNX1_3, Q8TBB1, sequence (Q8TBB1 500-596): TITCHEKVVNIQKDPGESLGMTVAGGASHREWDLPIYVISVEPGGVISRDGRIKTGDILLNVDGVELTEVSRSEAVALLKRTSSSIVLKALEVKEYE

| Binder | pKd (ARHGEF12, Q9NZN5-2) | pKd (CARD11, Q9BXL7) | pKd (DLG1_3, Q12959) | pKd (FRMPD1, Q5SYB0) | pKd (GIPC2, Q8TF65) | pKd (GRIP1_2, Q9Y3R0) | pKd (GRIP2_4, Q9C0E4) | pKd (HTRA1, Q92743) | pKd (HTRA4, P83105) | pKd (Inadl_5, Q8NI35) | pKd (Inadl_6, Q8NI35) | pKd (LDB3, O75112) | pKd (LNX1_3, Q8TBB1) | pKd (MAGI2_3, Q86UL8) | pKd (MAGI2_4, Q86UL8) | pKd (MAGI2_5, Q86UL8) | pKd (NHERF3_3, Q5T2W1) | pKd (NHERF3_4, Q5T2W1) | pKd (NHERF4_2, Q86UT5) | pKd (PDZD2_2, O15018) | other results |
| --- | --- | --- | --- | --- | --- | --- | --- | --- | --- | --- | --- | --- | --- | --- | --- | --- | --- | --- | --- | --- | --- |
| EALLQMESVA [CAVIN3, Q969G5] | 3.63 | below the threshold | below the threshold | below the threshold | 3.97 | below the threshold | below the threshold | 3.93 | below the threshold | below the threshold | below the threshold | below the threshold | below the threshold | below the threshold | below the threshold | below the threshold | below the threshold | below the threshold | below the threshold | below the threshold | pKd (PICK1, Q9NRD5): below the threshold; pKd (PTPN3, P26045): below the threshold; pKd (SCRIB_2, Q14160): below the threshold; pKd (SIPA1L2, Q9P2F8): below the threshold; pKd (SNTA1, Q13424): below the threshold; pKd (SNTG1, Q9NSN8): below the threshold; pKd (TJP3_3, O95049): below the threshold |
| PRAEAEDSFL [PDGFRB, P09619] | 3.63 | below the threshold | 3.54 | below the threshold | 3.8 | below the threshold | below the threshold | 4.27 | 3.98 | below the threshold | 3.81 | 3.67 | below the threshold | 3.55 | 3.6 | below the threshold | below the threshold | below the threshold | 3.66 | 4.43 | pKd (PICK1, Q9NRD5): 4.2; pKd (PTPN3, P26045): 4.45; pKd (SCRIB_2, Q14160): below the threshold; pKd (SIPA1L2, Q9P2F8): below the threshold; pKd (SNTA1, Q13424): 3.59; pKd (SNTG1, Q9NSN8): below the threshold; pKd (TJP3_3, O95049): 3.49 |
| IKAIVDLTGL [TRAF2, Q12933] | 3.5 | below the threshold | below the threshold | below the threshold | below the threshold | below the threshold | below the threshold | below the threshold | below the threshold | below the threshold | below the threshold | below the threshold | below the threshold | below the threshold | below the threshold | below the threshold | below the threshold | below the threshold | below the threshold | below the threshold | pKd (PICK1, Q9NRD5): below the threshold; pKd (PTPN3, P26045): 3.91; pKd (SCRIB_2, Q14160): below the threshold; pKd (SIPA1L2, Q9P2F8): below the threshold; pKd (SNTA1, Q13424): below the threshold; pKd (SNTG1, Q9NSN8): below the threshold; pKd (TJP3_3, O95049): below the threshold |
| EKKTLIGIKL [GOT1L1, Q8NHS2] | 3.64 | below the threshold | below the threshold | below the threshold | below the threshold | below the threshold | below the threshold | 4.48 | below the threshold | below the threshold | below the threshold | below the threshold | below the threshold | below the threshold | below the threshold | below the threshold | below the threshold | 4.74 | below the threshold | below the threshold | pKd (PICK1, Q9NRD5): 4.14; pKd (PTPN3, P26045): below the threshold; pKd (SCRIB_2, Q14160): below the threshold; pKd (SIPA1L2, Q9P2F8): below the threshold; pKd (SNTA1, Q13424): below the threshold; pKd (SNTG1, Q9NSN8): below the threshold; pKd (TJP3_3, O95049): below the threshold |
| SARSRLSSNL [HCN2, Q9UL51] | 4.66 | below the threshold | below the threshold | below the threshold | below the threshold | below the threshold | below the threshold | below the threshold | below the threshold | below the threshold | below the threshold | below the threshold | below the threshold | below the threshold | below the threshold | below the threshold | below the threshold | below the threshold | below the threshold | 3.74 | pKd (PICK1, Q9NRD5): below the threshold; pKd (PTPN3, P26045): 4.16; pKd (SCRIB_2, Q14160): below the threshold; pKd (SIPA1L2, Q9P2F8): below the threshold; pKd (SNTA1, Q13424): below the threshold; pKd (SNTG1, Q9NSN8): below the threshold; pKd (TJP3_3, O95049): below the threshold |
